Measured values published in patent US20250289873A1 (BROADWING BIO, published 2025).
Positions count from the first letter of the chain named.

T1: human CFHL3-His (ATX-P-58) (human, UniProt Q02985 19-330)
T1 construct: also called human CFHR3 protein; CFHR3; not shown: C-terminal His tag (and linker)
T1 sequence (looked up): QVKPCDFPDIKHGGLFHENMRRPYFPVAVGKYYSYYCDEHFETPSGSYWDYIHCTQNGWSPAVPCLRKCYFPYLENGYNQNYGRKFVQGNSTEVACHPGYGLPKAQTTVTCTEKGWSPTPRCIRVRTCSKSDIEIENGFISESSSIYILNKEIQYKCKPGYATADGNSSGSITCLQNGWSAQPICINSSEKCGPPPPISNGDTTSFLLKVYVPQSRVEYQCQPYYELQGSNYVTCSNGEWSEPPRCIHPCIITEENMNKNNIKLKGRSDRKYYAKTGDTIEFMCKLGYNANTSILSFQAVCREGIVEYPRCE

T2: Human CFHL1-Y402H-His (ATX-P-421) (human)
T2 construct: also called human CFHL-1 (Y402H) protein
T2 chain: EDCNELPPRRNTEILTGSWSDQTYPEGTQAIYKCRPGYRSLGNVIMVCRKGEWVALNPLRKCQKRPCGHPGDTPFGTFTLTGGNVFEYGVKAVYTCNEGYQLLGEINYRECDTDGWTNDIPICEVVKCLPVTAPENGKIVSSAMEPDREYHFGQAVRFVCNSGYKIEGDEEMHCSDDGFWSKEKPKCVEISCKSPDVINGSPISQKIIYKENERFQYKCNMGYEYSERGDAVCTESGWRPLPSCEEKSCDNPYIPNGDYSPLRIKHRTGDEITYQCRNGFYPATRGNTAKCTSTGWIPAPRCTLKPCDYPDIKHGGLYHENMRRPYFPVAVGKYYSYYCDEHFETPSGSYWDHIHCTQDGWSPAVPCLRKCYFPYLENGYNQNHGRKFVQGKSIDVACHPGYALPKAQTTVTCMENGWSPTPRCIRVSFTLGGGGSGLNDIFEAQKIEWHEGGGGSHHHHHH

B1: ATX-P-560 (antibody, human IgG1, kappa, N297A, V domains shown)
VH: QVQLQQSGPGLVKPSQTLSLTCAISGDSVSSNTAAWNWIRQSPSRGLEWLGRTYYRSKWYNDYAVSVKSRITINPDTSKNQFSLQLSSVTPQDTAIYYCASDNWNNGGPGFDPWGQGTLVTVSS
VL: DIQMTQSPSSVSTSVGDRVTITCRASQGISSWLAWYQQKPGKAPKLLISAASSLQSGVPSRFSGSGSGTDFTLTISTLQPEDFASYYCQQANSFPPTFGQGTRVEIKR
B2: ATX-P-597 (antibody, human IgG1, kappa, N297A, V domains shown)
VH: QVQLVQSGAEVKKPGASVKVSCKASGYTFTNYYMQWVRQAPGQGLEWLGIIDPSGGSTTYAQKFQGRVTMTRDTSTSTVHMELRSLRSEDTAVYYCARDEGTDRPGWGYWGQGTLVTVSS
VL: DIQMTQSPSSLSASIGDRVTITCRASQSISSYLDWYQRKSGKAPKLLIYAASSLQSGVPSRFSGSGSGTDFTLTISSLQPEDFATYYCQQSYSTPLTFGGGTKVDIKR
B3: ATX-P-598 (antibody, human IgG1, kappa, N297A, V domains shown)
VH: QVQLQESGPGLVKPSGTLSLTCAVSGGSISSSNWWSWVRQSPGKGLEWIGEIYHSGTTNYNPSLKSRVTISVDKSKNQFSLKLSSATAADTAVYYCARDRLRLGESSSDVFDIWGQGTMVTVSS
VL: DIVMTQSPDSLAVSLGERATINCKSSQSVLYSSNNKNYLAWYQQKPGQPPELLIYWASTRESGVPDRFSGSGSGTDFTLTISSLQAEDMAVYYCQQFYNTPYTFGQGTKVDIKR
B4: ATX-P-601 (antibody, human IgG1, kappa, N297A, V domains shown)
VH: QVQLVQSGAEVKKPGASVKVSCKASGYTFTSYYMHWVRQAPGQGLEWMGIINPSGGSTNYAQKFQGRLTMTRDTSTNTVYMELSSLRSEDTAVYYCATDQSGGMDVWGKGTTVTVSS
VL: DIQMTQSPSSLSASVGDRVTITCRASQSINIYLNWYQQKPEKDPKLLIYAASSLQSGVPSRFSGSGSGTDFTLTISNLQPEDFATYYCQQSYSTPITFGQGTRLEIKR
B5: ATX-P-602 (antibody, human IgG1, kappa, N297A, V domains shown)
VH: not shown
VL: EIVLTQSPGTLSLSPGERATLSCRASQSVSSSYLAWYQQKPGQAPRLLIYGASSRATGIPDRFSGSGSGTQFTLTISSLQSEDFAVYYCQQYGSSPWTFGQGTKVDIKR
B6: ATX-P-607 (antibody, human IgG1, kappa, N297A, V domains shown)
VH: QVQLVQSGAEVKKPGASVKVSCKASGYTFTSYYMHWVRQAPGQGLEWMGIINPSGGSTSYAQKFQGRVTMTRDTSTNTVYMELSSLRSEDTAVYYCARDPEYSSAFDIWGQGTMVTVSS
VL: B2 VL with I15V, V19G, S30R, D34N, R38Q, S40P, S93R, L96V, G100P

Legend:
[1] = biological target: T1, human CFHL3-His (ATX-P-58); test: Carterra LSA biosensor, mAb printed on chip, cutoff set by isotype control
Description: (§1) Experiments were also conducted to determine the reactivity of the CFHR4 antibodies with the human CFHR3 protein (FIG. 9). The binding experiments were performed on Carterra LSA with a running buffer of PBS pH 7.40, 1% BSA, 0.05% Tween20. Antibodies were covalently printed on an HC30M chip. Chip was activated with 33 mM s-NHS and 133 mM EDC in 100 mM MES pH 5.5 for 7 minutes. Antibodies at 10 mg/ml in acetic acid buffer pH 4.5 were used for printing for 10 min. The printed chip was then quenched with 1 M ethanolamine pH 8.5 for 7 min. For the reactivity assay, ATX-P-58, human CFHL3-His, at 550 nM was tested with 5 min association followed by 15 min dissociation. Results were processed and analyzed in Carterra LSA Kinetics Software. The data was referenced with the interstitial reference spots and double-referenced to a buffer cycle, and then the responses (nm) after association were reported. Isotype control was used to determine the cutoff response for positive binding.
as §1, with “CFHL-1 (Y402H)” for “CFHR3”, “10).” for “9).”, “ATX-P-421,” for “ATX-P-58,”, “CFHL1-Y402H-His,” for “CFHL3-His,”, “380” for “550”

[2] = biological target: T2, Human CFHL1-Y402H-His (ATX-P-421); test: as above
Description: as §1
as §1, with “CFHL-1 (Y402H)” for “CFHR3”, “10).” for “9).”, “ATX-P-421,” for “ATX-P-58,”, “CFHL1-Y402H-His,” for “CFHL3-His,”, “380” for “550”

| Binder | binding result [1] | binding result [2] |
| --- | --- | --- |
| B1 | no binding (tested: 550 nM) | no binding (tested: 380 nM) |
| B2 | no binding (tested: 550 nM) | no binding (tested: 380 nM) |
| B3 | no binding (tested: 550 nM) | no binding (tested: 380 nM) |
| B4 | no binding (tested: 550 nM) | no binding (tested: 380 nM) |
| B5 | no binding (tested: 550 nM) | no binding (tested: 380 nM) |
| B6 | no binding (tested: 550 nM) | no binding (tested: 380 nM) |
